From paper PMC6420636, “The deubiquitylating enzyme USP15 regulates homologous recombination repair and cancer cell response to PARP inhibitors” (Nature Communications, 2019)

Target: T1, FLAG-BARD1-BRCT, deubiquitinated by His-USP15 in vitro (UniProt Q99728 568-777)
T1 construct: BARD1 C-terminal BRCT domain; also called deubiquitinated BARD1-BRCT domain
T1 sequence (looked up): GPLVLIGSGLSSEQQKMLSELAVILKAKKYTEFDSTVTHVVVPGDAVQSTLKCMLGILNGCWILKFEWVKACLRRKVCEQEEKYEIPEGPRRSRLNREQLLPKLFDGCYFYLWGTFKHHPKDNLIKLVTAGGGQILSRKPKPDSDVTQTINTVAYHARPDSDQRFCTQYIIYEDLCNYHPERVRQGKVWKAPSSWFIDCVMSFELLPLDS
Assay: pull-down; in vitro binding assay: BARD1-BRCT purified by tandem IP and left on FLAG beads, untreated or deubiquitinated by His-USP15, incubated with GST or GST-HP1γ
Conditions: both partners purified

binding result: binds
B1: GST-HP1γ (natural protein)
chain: not shown
notes: HP1γ; plasmid a gift from Naoko Tanese; source: E. coli BL21, purified (glutathione Sepharose 4B)
